Earlier results, collected in publication PMC5372734.
Like-named read-outs stand apart in the source and are kept apart here.

Columns and labels:
[1] = target: Factor XIIa (Homo sapiens) (UniProt P00748)
[2] = target: Factor XIIa (Homo sapiens) (UniProt P00748); remark: listed apart in the source

Chain of UniProt P00748 (P00748 whole entry, looked up): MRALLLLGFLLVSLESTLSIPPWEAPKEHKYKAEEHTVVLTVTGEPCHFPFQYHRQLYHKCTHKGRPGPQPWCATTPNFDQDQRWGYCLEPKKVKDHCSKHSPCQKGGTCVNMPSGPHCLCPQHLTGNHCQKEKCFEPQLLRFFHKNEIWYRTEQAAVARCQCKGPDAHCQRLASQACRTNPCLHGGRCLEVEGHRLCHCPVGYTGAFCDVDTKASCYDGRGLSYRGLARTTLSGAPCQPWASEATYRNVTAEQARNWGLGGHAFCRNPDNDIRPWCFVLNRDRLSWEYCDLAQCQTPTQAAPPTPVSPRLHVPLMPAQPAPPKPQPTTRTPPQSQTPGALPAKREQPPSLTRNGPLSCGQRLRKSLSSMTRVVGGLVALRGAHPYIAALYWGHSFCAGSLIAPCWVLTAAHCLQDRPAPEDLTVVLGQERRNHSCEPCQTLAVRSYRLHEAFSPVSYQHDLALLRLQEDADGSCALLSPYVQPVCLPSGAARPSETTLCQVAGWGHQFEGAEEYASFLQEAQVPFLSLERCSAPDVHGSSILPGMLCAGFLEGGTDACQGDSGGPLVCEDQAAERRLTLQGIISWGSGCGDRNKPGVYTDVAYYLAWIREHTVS

- Kd [1]: 0.009 nM
- Kd [2]: 1.6 nM
Substance: Histidine-rich glycoprotein (from UniProt P04196)
